In patent US20230295310A1 (ABCELLERA BIOLOGICS, published 2023):
Numbering of substitutions follows the chain as printed. Blank lines part the entries; values can stand above or below the binder they belong to.

Molecular target: EGFR on HeLa cells (UniProt P00533 25-1210, limits assumed)
Test: cell-based or functional assay

B1: GOMP001_bsAb_013 (bispecific antibody, human IgG1, kappa, L234A L235A)
heavy 1: QVQLVQSGAEVKKPGASVKVSCKASGYTFTSHWMHWVRKAPGQGLEWIGEFNPSNGRTNYNEEFKSKATMTVDTSTNTAYMELSSLRSEDTAVYYCASRDYDYDGRYFDYWGQGTLVTVSSASTKGPSVFPLAPSSKSTSGGTAALGCLVADYFPEPVTVSWNSGALTSGVHTFPAVLQSSGLYSLSSVVTVPSSSLGTQTYICNVNHKPSNTKVDEKVEPKSCDKTHTCPPCPAPEAAGGPSVFLFPPKPKDTLMISRTPEVTCVVVDVSHEDPEVKFNWYVDGVEVHNAKTKPREEQYNSTYRVVSVLTVLHQDWLNGKEYKCKVSNKALPAPIEKTISKAKGQPREPQVYTLPPSREEMTDNQVSLTCLVKGFYPSDIAVEWESNGQPENNYKTTPPVLMSDGSFFLASKLTVDKSRWQQGNVFSCSVMHEALHNHYTQKSLSLSPG
light 1: RIQMTQSPSSLSASVGDRVTITCSASSSVTYMYWYQDKPGKAPKLLIYDTSNLASGVPSRFSGSGSGTDYTFTISSLQPEDIATYYCQQWSSHIFTFGQGTKVEIKRTVAAPSVFIFPPSDKQLKSGTARVVCLLNNFYPREAKVQWKVDNALQSGNSQESVTEQDSKDSTYSLSSTLTLSKADYEKHKVYACEVTHQGLSSPVTKSFNRGEC
heavy 2: QVQLVQSGAEVKKPGASVKVSCKASGYTFTSYDINWVRYATGQGLEWMGWMNPKSGKTGYAQKFQGRITMTRNTPISTVYMDLSSLRSEDTAVYYCAREGHYDFWTGYYSFDYWGRGTLVTVSSASTKGPSVFPLAPSSKSTSGGTAALGCLVKDYFPEPVTVSWNSGALTSGVHTFPAVLQSSGLYSLSSVVTVPSSSLGTQTYICNVNHKPSNTKVDKKVEPKSCDKTHTCPPCPAPEAAGGPSVFLFPPKPKDTLMISRTPEVTCVVVDVSHEDPEVKFNWYVDGVEVHNAKTKPREEQYNSTYRVVSVLTVLHQDWLNGKEYKCKVSNKALPAPIEKTISKAKGQPRRPRVYTLPPSREEMTKNQVSLVCLVKGFYPSDIAVEWESNGQPENNYKTTPPVLDSDGSFFLYSVLTVDKSRWQQGNVFSCSVMHEALHNHYTQKSLSLSPG
light 2: DIQMTQSPSSLSASVGDRVTITCRASQGIRNDLGWYQRTPGDAPKRLIYAASSLQSGVPSRFSGSGSGTEFTLTISSLQPEDFATYYCLQHYSYPYTFGQGTKLEIKRTVAAPSVFIFPPSDEQLKSGTASVVCLLNNFYPREAKVQWKVDNALQSGNSQESVTEQDSKDSTYSLSSTLTLSKADYEKHKVYACEVTHQGLSSPVTKSFNRGEC
Max killing %: 80.8%
X… HeLa EC50: 0.668 nM

B4: GOMP001_bsAb_014 (bispecific antibody, human IgG1, kappa, L234A L235A)
heavy 1: QVQLVQSGAEVKKPGASVKVSCKASGYTFTSYDINWVRKATGQGLEWMGWMNPKSGKTGYAQEFQGRITMTRNTPISTVYMDLSSLRSEDTAVYYCAREGHYDFWTGYYSFDYWGQGTLVTVSSASTKGPSVFPLAPSSKSTSGGTAALGCLVADYFPEPVTVSWNSGALTSGVHTFPAVLQSSGLYSLSSVVTVPSSSLGTQTYICNVNHKPSNTKVDEKVEPKSCDKTHTCPPCPAPEAAGGPSVFLFPPKPKDTLMISRTPEVTCVVVDVSHEDPEVKFNWYVDGVEVHNAKTKPREEQYNSTYRVVSVLTVLHQDWLNGKEYKCKVSNKALPAPIEKTISKAKGQPREPQVYTLPPSREEMTDNQVSLTCLVKGFYPSDIAVEWESNGQPENNYKTTPPVLMSDGSFFLASKLTVDKSRWQQGNVFSCSVMHEALHNHYTQKSLSLSPG
light 1: B1 light 2 with D1R, R38D, D42K, E123K, S131R
heavy 2: QVQLVQSGAEVKKPGASVKVSCKASGYTFTSHWMHWVRYAPGQGLEWIGEFNPSNGRTNYNEKFKSKATMTVDTSTNTAYMELSSLRSEDTAVYYCASRDYDYDGRYFDYWGRGTLVTVSSASTKGPSVFPLAPSSKSTSGGTAALGCLVKDYFPEPVTVSWNSGALTSGVHTFPAVLQSSGLYSLSSVVTVPSSSLGTQTYICNVNHKPSNTKVDKKVEPKSCDKTHTCPPCPAPEAAGGPSVFLFPPKPKDTLMISRTPEVTCVVVDVSHEDPEVKFNWYVDGVEVHNAKTKPREEQYNSTYRVVSVLTVLHQDWLNGKEYKCKVSNKALPAPIEKTISKAKGQPRRPRVYTLPPSREEMTKNQVSLVCLVKGFYPSDIAVEWESNGQPENNYKTTPPVLDSDGSFFLYSVLTVDKSRWQQGNVFSCSVMHEALHNHYTQKSLSLSPG
light 2: B1 light 1 with R1D, D37R, K41D, K122E, R130S
Max killing %: 95%
X… HeLa EC50: 0.131 nM

The next lines start with results.

X… HeLa EC50: 0.0192 nM
B2: GOMP001_bsAb_016 (bispecific antibody, human IgG1, kappa, L234A L235A)
heavy 1: QVQLVESGGGVVQPGRSLRLSCAASGFTFSGYGMHWVRKAPGKGLDWVAIIYYNGNNKYYADEVKGRFTISRDNSKNTLYLQMNSLRAEDTAVYYCARGGGYNWFDPWGQGTLVIVSSASTKGPSVFPLAPSSKSTSGGTAALGCLVADYFPEPVTVSWNSGALTSGVHTFPAVLQSSGLYSLSSVVTVPSSSLGTQTYICNVNHKPSNTKVDEKVEPKSCDKTHTCPPCPAPEAAGGPSVFLFPPKPKDTLMISRTPEVTCVVVDVSHEDPEVKFNWYVDGVEVHNAKTKPREEQYNSTYRVVSVLTVLHQDWLNGKEYKCKVSNKALPAPIEKTISKAKGQPREPQVYTLPPSREEMTDNQVSLTCLVKGFYPSDIAVEWESNGQPENNYKTTPPVLMSDGSFFLASKLTVDKSRWQQGNVFSCSVMHEALHNHYTQKSLSLSPG
light 1: RIQMTQSPSSLSASVGDRVTITCRPSQSISNYLNWYQDKPGKAPKLLIYAASSLQSGVPSRFSGSGSGTDFTLTISSLQPEDFATYYCQQSYSTPFTFGRGTRLEIKRTVAAPSVFIFPPSDKQLKSGTARVVCLLNNFYPREAKVQWKVDNALQSGNSQESVTEQDSKDSTYSLSSTLTLSKADYEKHKVYACEVTHQGLSSPVTKSFNRGEC
heavy 2: B4 heavy 2
light 2: B1 light 1 with R1D, D37R, K41D, K122E, R130S
Max killing %: 92%

X… HeLa EC50: 0.705 nM
B3: GOMP001_bsAb_017 (bispecific antibody, human IgG1, kappa, L234A L235A)
heavy 1: B1 heavy 1
light 1: B1 light 1
heavy 2: EVQLVESGGDLVQPGRSLRLSCAASGFTFDDCVIHWVRYAPGKGLEWVSGITWNSGRIGYADRVKGRFTISRDNAKNSLYLQMNSLRVEDTALYYCAKEGNYDFWSTYYRGYFDLWGRGTLVTVSSASTKGPSVFPLAPSSKSTSGGTAALGCLVKDYFPEPVTVSWNSGALTSGVHTFPAVLQSSGLYSLSSVVTVPSSSLGTQTYICNVNHKPSNTKVDKKVEPKSCDKTHTCPPCPAPEAAGGPSVFLFPPKPKDTLMISRTPEVTCVVVDVSHEDPEVKFNWYVDGVEVHNAKTKPREEQYNSTYRVVSVLTVLHQDWLNGKEYKCKVSNKALPAPIEKTISKAKGQPRRPRVYTLPPSREEMTKNQVSLVCLVKGFYPSDIAVEWESNGQPENNYKTTPPVLDSDGSFFLYSVLTVDKSRWQQGNVFSCSVMHEALHNHYTQKSLSLSPG
light 2: B1 light 2 with T39K, S56G, S60L, Y92N
Max killing %: 91.4%

X… HeLa EC50: 0.179 nM
B5: GOMP001_bsAb_015 (bispecific antibody, human IgG1, kappa, L234A L235A)
heavy 1: B1 heavy 1
light 1: B1 light 1
heavy 2: QVQLVESGGGVVQPGRSLRLSCAASGFTFSGYGMHWVRYAPGKGLDWVAIIYYNGNNKYYADRVKGRFTISRDNSKNTLYLQMNSLRAEDTAVYYCARGGGYNWFDPWGRGTLVIVSSASTKGPSVFPLAPSSKSTSGGTAALGCLVKDYFPEPVTVSWNSGALTSGVHTFPAVLQSSGLYSLSSVVTVPSSSLGTQTYICNVNHKPSNTKVDKKVEPKSCDKTHTCPPCPAPEAAGGPSVFLFPPKPKDTLMISRTPEVTCVVVDVSHEDPEVKFNWYVDGVEVHNAKTKPREEQYNSTYRVVSVLTVLHQDWLNGKEYKCKVSNKALPAPIEKTISKAKGQPRRPRVYTLPPSREEMTKNQVSLVCLVKGFYPSDIAVEWESNGQPENNYKTTPPVLDSDGSFFLYSVLTVDKSRWQQGNVFSCSVMHEALHNHYTQKSLSLSPG
light 2: not shown
Max killing %: 100%
